Paper PMC11371640, “Structural deficits in key domains of Shank2 lead to alterations in postsynaptic nanoclusters and to a neurodevelopmental disorder in humans” (Molecular Psychiatry, 2022)

B1: His6-SUMO-tagged SH3 to PDZ domains of Shank2 (R520-D727), WT [not stated (human or rat cDNA cloned)] / synthetic peptide of the complete PDZ ligand of GKAP (last 15 amino acids of GKAP/SAPAP1) [not stated] (parent)
chain 1: RKLYSAVPGRLFVAVKPYQPQVDGEIPLHRGDRVKVLSIGEGGFWEGSARGHIGWFPAECVEEVQCKPRDSQAETRADRSKKLFRHYTVGSYDSFDTSSDCIIEEKTVVLQKKDNEGFGFVLRGAKADTPIEEFTPTPAFPALQYLESVDEGGVAWQAGLRTGDFLIEVNNENVVKVGHRQVVNMIRQGGNHLVLKVVTVTRNLDPDD
chain 2: ADSIEIYIPEAQTRL

Variants of: B1
Assay: ITC
Details: with synthetic peptide of the complete PDZ ligand of GKAP (last 15 amino acids of GKAP/SAPAP1); parent: 1

ratio to parent | Variant
1.3 | chain 1 N171S
2.6 | chain 1 V198F
2.8 | chain 1 S91Y
